Reference: IntAct's records for PubMed 23756461

B1: Cell shape-determining protein MreB (Escherichia coli (strain K12)), P0A9X4 (parent)
chain: MLKKFRGMFSNDLSIDLGTANTLIYVKGQGIVLNEPSVVAIRQDRAGSPKSVAAVGHDAKQMLGRTPGNIAAIRPMKDGVIADFFVTEKMLQHFIKQVHSNSFMRPSPRVLVCVPVGATQVERRAIRESAQGAGAREVFLIEEPMAAAIGAGLPVSEATGSMVVDIGGGTTEVAVISLNGVVYSSSVRIGGDRFDEAIINYVRRNYGSLIGEATAERIKHEIGSAYPGDEVREIEVRGRNLAEGVPRGFTLNSNEILEALQEPLTGIVSAVMVALEQCPPELASDISERGMVLTGGGALLRNLDRLLMEETGIPVVVAEDPLTCVARGGGKALEMIDMHGGDLFSEE
B2: Cell division protein FtsZ (Escherichia coli (strain K12)), P0A9A6 (parent)
chain: MFEPMELTNDAVIKVIGVGGGGGNAVEHMVRERIEGVEFFAVNTDAQALRKTAVGQTIQIGSGITKGLGAGANPEVGRNAADEDRDALRAALEGADMVFIAAGMGGGTGTGAAPVVAEVAKDLGILTVAVVTKPFNFEGKKRMAFAEQGITELSKHVDSLITIPNDKLLKVLGRGISLLDAFGAANDVLKGAVQGIAELITRPGLMNVDFADVRTVMSEMGYAMMGSGVASGEDRAEEAAEMAISSPLLEDIDLSGARGVLVNITAGFDLRLDEFETVGNTIRAFASDNATVVIGTSLDPDMNDELRVTVVATGIGMDKRPEITLVTNKQVQQPVMDRYQQHGMAPLTQEQKPVAKVVNDNAPQTAKEPDYLDIPAFLRKQAD

Variants of: B1
Details: with ftsz_ecoli ftsZ

Q: Which “effect of a mutation on the interaction” value does the source give for D285A here?
A: disrupting interaction

Variants of: B2
Details: with mreb_ecoli mreB

Q: How did the “effect of a mutation on the interaction” value turn out when P203Q was run?
A: disrupting interaction
